Patent US20220401557A1 (Chugai, published 2022)
Where a chain is given by its changes, count along the chain named.

B1: hCE115HAuPA27/GLS//GCH065 (bispecific antibody, human IgG1, kappa, N297A)
heavy 1: QDGNEEMGGITQTPYKVSISGTTVILTLSGRSDNHQVQLVESGGGVVQPGRSLRLSCAASGFTFSNAWMHWVRQAPGKGLEWVAQIKAKSNNYATYYAESVKGRFTISRDDSKNSLYLQMNSLKTEDTAVYYCRYVHYGAYYGVDAWGQGTTVTVSSASTKGPSVFPLAPSSKSTSGGTAALGCLVKDYFPEPVTVSWNSGALTSGVHTFPAVLQSSGLYSLSSVVTVPSSSLGTQTYICNVNHKPSNTKVDKKVEPKSCDKTHTCPPCPAPELRGGPKVFLFPPKPKDTLMISRTPEVTCVVVDVSHEDPEVKFNWYVDGVEVHNAKTKPREEQYASTYRVVSVLTVLHQDWLNGKEYKCKVSNKALPAPIEKTISKAKGQPREPQVYTLPPSRKEMTKNQVSLTCLVKGFYPSDIAVEWESNGQPENNYKTTPPYLDSDGSFFLYSKLTVDKSRWQQGNVFSCSVMHEALHNHYTQKSLSLSP
light 1: DIVMTQSPLSLPVTPGEPASISCRSSQSLVHSNRNTYLHWYQQKPGQAPRLLIYKVSNRFSGVPDRFSGSGSGTDFTLKISRVEAEDVGVYYCGQGTQVPYTFGQGTKLEIKRTVAAPSVFIFPPSDEQLKSGTASVVCLLNNFYPREAKVQWKVDNALQSGNSQESVTEQDSKDSTYSLSSTLTLSKADYEKHKVYACEVTHQGLSSPVTKSFNRGEC
heavy 2: QVQLVQSGAEVKKPGASVTVSCKASGYTFTDYEMHWIRQPPGEGLEWIGAIDGPTPDTAYSEKFKGRVTLTADKSTSTAYMELSSLTSEDTAVYYCTRFYSYTYWGQGTLVTVSSASTKGPSVFPLAPSSKSTSGGTAALGCLVKDYFPEPVTVSWNSGALTSGVHTFPAVLQSSGLYSLSSVVTVPSSSLGTQTYICNVNHKPSNTKVDKKVEPKSCDKTHTCPPCPAPELRGGPKVFLFPPKPKDTLMISRTPEVTCVVVDVSHEDPEVKFNWYVDGVEVHNAKTKPREEQYASTYRVVSVLTVLHQDWLNGKEYKCKVSNKALPAPIEKTISKAKGQPREPQVYTLPPSREEMTKNQVSLTCLVKGFYPSDIAVEWESNGQPENNYKTTPPYLDSDGSFFLYSKLTVDKSRWQQGNVFSCSVMHEALHNHYTQESLSLSP
light 2: B1 light 1 with S28P
B2: ANGS/GLS//GCH065 (bispecific antibody, human IgG1, kappa, N297A)
heavy 1: QDGNEGGGSGGGSQVQLVESGGGLVQPGRSLRLSCAASGFTFSNAWMHWVRQAPGKGLEWVAQIKDKANGYNAYYAESVKGRFTISRDDSKNSIYLQMNSLKTEDTAVYYCRYVHYTTYAGFSYKFGVDAWGQGTTVTVSSASTKGPSVFPLAPSSKSTSGGTAALGCLVKDYFPEPVTVSWNSGALTSGVHTFPAVLQSSGLYSLSSVVTVPSSSLGTQTYICNVNHKPSNTKVDKKVEPKSCDKTHTCPPCPAPELRGGPKVFLFPPKPKDTLMISRTPEVTCVVVDVSHEDPEVKFNWYVDGVEVHNAKTKPREEQYASTYRVVSVLTVLHQDWLNGKEYKCKVSNKALPAPIEKTISKAKGQPREPQVYTLPPSRKEMTKNQVSLTCLVKGFYPSDIAVEWESNGQPENNYKTTPPYLDSDGSFFLYSKLTVDKSRWQQGNVFSCSVMHEALHNHYTQKSLSLSP
light 1: B1 light 1
heavy 2: B1 heavy 2
light 2: B1 light 1 with S28P
B3: AN/GLS//GCH065 (bispecific antibody, human IgG1, kappa, N297A)
heavy 1: QVQLVESGGGLVQPGRSLRLSCAASGFTFSNAWMHWVRQAPGKGLEWVAQIKDKANGYNAYYAESVKGRFTISRDDSKNSIYLQMNSLKTEDTAVYYCRYVHYTTYAGFSYKFGVDAWGQGTTVTVSSASTKGPSVFPLAPSSKSTSGGTAALGCLVKDYFPEPVTVSWNSGALTSGVHTFPAVLQSSGLYSLSSVVTVPSSSLGTQTYICNVNHKPSNTKVDKKVEPKSCDKTHTCPPCPAPELRGGPKVFLFPPKPKDTLMISRTPEVTCVVVDVSHEDPEVKFNWYVDGVEVHNAKTKPREEQYASTYRVVSVLTVLHQDWLNGKEYKCKVSNKALPAPIEKTISKAKGQPREPQVYTLPPSRKEMTKNQVSLTCLVKGFYPSDIAVEWESNGQPENNYKTTPPYLDSDGSFFLYSKLTVDKSRWQQGNVFSCSVMHEALHNHYTQKSLSLSP
light 1: B1 light 1
heavy 2: B1 heavy 2
light 2: B1 light 1 with S28P
B4: hCE115HA/GLSGS//GCH065 (bispecific antibody, human IgG1, kappa, N297A)
heavy 1: QVQLVESGGGVVQPGRSLRLSCAASGFTFSNAWMHWVRQAPGKGLEWVAQIKAKSNNYATYYAESVKGRFTISRDDSKNSLYLQMNSLKTEDTAVYYCRYVHYGAYYGVDAWGQGTTVTVSSASTKGPSVFPLAPSSKSTSGGTAALGCLVKDYFPEPVTVSWNSGALTSGVHTFPAVLQSSGLYSLSSVVTVPSSSLGTQTYICNVNHKPSNTKVDKKVEPKSCDKTHTCPPCPAPELRGGPKVFLFPPKPKDTLMISRTPEVTCVVVDVSHEDPEVKFNWYVDGVEVHNAKTKPREEQYASTYRVVSVLTVLHQDWLNGKEYKCKVSNKALPAPIEKTISKAKGQPREPQVYTLPPSRKEMTKNQVSLTCLVKGFYPSDIAVEWESNGQPENNYKTTPPYLDSDGSFFLYSKLTVDKSRWQQGNVFSCSVMHEALHNHYTQKSLSLSP
light 1: QDGNEGGGSGGGSGGGSDIVMTQSPLSLPVTPGEPASISCRSSQSLVHSNRNTYLHWYQQKPGQAPRLLIYKVSNRFSGVPDRFSGSGSGTDFTLKISRVEAEDVGVYYCGQGTQVPYTFGQGTKLEIKRTVAAPSVFIFPPSDEQLKSGTASVVCLLNNFYPREAKVQWKVDNALQSGNSQESVTEQDSKDSTYSLSSTLTLSKADYEKHKVYACEVTHQGLSSPVTKSFNRGEC
heavy 2: B1 heavy 2
light 2: B1 light 1 with S28P
B5: ANuPA20/GLS//GCH065 (bispecific antibody, human IgG1, kappa, N297A)
heavy 1: QDGNEEMGGITQTPYKVSISLSGRSDNHGGGSQVQLVESGGGLVQPGRSLRLSCAASGFTFSNAWMHWVRQAPGKGLEWVAQIKDKANGYNAYYAESVKGRFTISRDDSKNSIYLQMNSLKTEDTAVYYCRYVHYTTYAGFSYKFGVDAWGQGTTVTVSSASTKGPSVFPLAPSSKSTSGGTAALGCLVKDYFPEPVTVSWNSGALTSGVHTFPAVLQSSGLYSLSSVVTVPSSSLGTQTYICNVNHKPSNTKVDKKVEPKSCDKTHTCPPCPAPELRGGPKVFLFPPKPKDTLMISRTPEVTCVVVDVSHEDPEVKFNWYVDGVEVHNAKTKPREEQYASTYRVVSVLTVLHQDWLNGKEYKCKVSNKALPAPIEKTISKAKGQPREPQVYTLPPSRKEMTKNQVSLTCLVKGFYPSDIAVEWESNGQPENNYKTTPPYLDSDGSFFLYSKLTVDKSRWQQGNVFSCSVMHEALHNHYTQKSLSLSP
light 1: B1 light 1
heavy 2: B1 heavy 2
light 2: B1 light 1 with S28P
B6: hCE115HA/GLSuPA04//GCH065 (bispecific antibody, human IgG1, kappa, N297A)
heavy 1: B4 heavy 1
light 1: QDGNEEMGGGSGGGSGGGSLSGRSDNHGGGSDIVMTQSPLSLPVTPGEPASISCRSSQSLVHSNRNTYLHWYQQKPGQAPRLLIYKVSNRFSGVPDRFSGSGSGTDFTLKISRVEAEDVGVYYCGQGTQVPYTFGQGTKLEIKRTVAAPSVFIFPPSDEQLKSGTASVVCLLNNFYPREAKVQWKVDNALQSGNSQESVTEQDSKDSTYSLSSTLTLSKADYEKHKVYACEVTHQGLSSPVTKSFNRGEC
heavy 2: B1 heavy 2
light 2: B1 light 1 with S28P
B7: ANuPA27/GLS//GCH065 (bispecific antibody, human IgG1, kappa, N297A)
heavy 1: QDGNEEMGGITQTPYKVSISGTTVILTLSGRSDNHQVQLVESGGGLVQPGRSLRLSCAASGFTFSNAWMHWVRQAPGKGLEWVAQIKDKANGYNAYYAESVKGRFTISRDDSKNSIYLQMNSLKTEDTAVYYCRYVHYTTYAGFSYKFGVDAWGQGTTVTVSSASTKGPSVFPLAPSSKSTSGGTAALGCLVKDYFPEPVTVSWNSGALTSGVHTFPAVLQSSGLYSLSSVVTVPSSSLGTQTYICNVNHKPSNTKVDKKVEPKSCDKTHTCPPCPAPELRGGPKVFLFPPKPKDTLMISRTPEVTCVVVDVSHEDPEVKFNWYVDGVEVHNAKTKPREEQYASTYRVVSVLTVLHQDWLNGKEYKCKVSNKALPAPIEKTISKAKGQPREPQVYTLPPSRKEMTKNQVSLTCLVKGFYPSDIAVEWESNGQPENNYKTTPPYLDSDGSFFLYSKLTVDKSRWQQGNVFSCSVMHEALHNHYTQKSLSLSP
light 1: B1 light 1
heavy 2: B1 heavy 2
light 2: B1 light 1 with S28P
B8: ANuPA04/GLS//GCH065 (bispecific antibody, human IgG1, kappa, N297A)
heavy 1: QDGNEEMGGGSGGGSGGGSLSGRSDNHGGGSQVQLVESGGGLVQPGRSLRLSCAASGFTFSNAWMHWVRQAPGKGLEWVAQIKDKANGYNAYYAESVKGRFTISRDDSKNSIYLQMNSLKTEDTAVYYCRYVHYTTYAGFSYKFGVDAWGQGTTVTVSSASTKGPSVFPLAPSSKSTSGGTAALGCLVKDYFPEPVTVSWNSGALTSGVHTFPAVLQSSGLYSLSSVVTVPSSSLGTQTYICNVNHKPSNTKVDKKVEPKSCDKTHTCPPCPAPELRGGPKVFLFPPKPKDTLMISRTPEVTCVVVDVSHEDPEVKFNWYVDGVEVHNAKTKPREEQYASTYRVVSVLTVLHQDWLNGKEYKCKVSNKALPAPIEKTISKAKGQPREPQVYTLPPSRKEMTKNQVSLTCLVKGFYPSDIAVEWESNGQPENNYKTTPPYLDSDGSFFLYSKLTVDKSRWQQGNVFSCSVMHEALHNHYTQKSLSLSP
light 1: B1 light 1
heavy 2: B1 heavy 2
light 2: B1 light 1 with S28P

Molecular target: CD3 on NFAT-RE-luc2-Jurkat cells (human, UniProt P07766 23-207)
Assay: cell-based or functional assay

CD3 on NFAT-RE-luc2-Jurkat cells, sequence (P07766 23-207): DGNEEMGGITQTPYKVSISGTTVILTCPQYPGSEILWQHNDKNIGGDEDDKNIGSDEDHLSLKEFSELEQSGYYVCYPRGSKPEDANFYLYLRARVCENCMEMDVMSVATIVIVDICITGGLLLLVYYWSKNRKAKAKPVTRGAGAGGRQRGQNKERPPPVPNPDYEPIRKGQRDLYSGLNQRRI

Binder	increase rate due to the protease treatment (luciferase, uPA-treated / untreated), antibody 0.1 nM [ratio]	increase rate due to the protease treatment (luciferase, uPA-treated / untreated), antibody 1 nM [ratio]
B1	0.9	1.4
B2	1	1
B3	0.6	0.7
B4	1	0.9
B5	1.5	2.2
B6	1.1	8.2
B7	0.9	0.9
B8	1.9	3
